IntAct's records for PubMed 18761085

B1: Ras GTPase-activating protein 1 (Homo sapiens), P20936 (parent)
chain: MMAAEAGSEEGGPVTAGAGGGGAAAGSSAYPAVCRVKIPAALPVAAAPYPGLVETGVAGTLGGGAALGSEFLGAGSVAGALGGAGLTGGGTAAGVAGAAAGVAGAAVAGPSGDMALTKLPTSLLAETLGPGGGFPPLPPPPYLPPLGAGLGTVDEGDSLDGPEYEEEEVAIPLTAPPTNQWYHGKLDRTIAEERLRQAGKSGSYLIRESDRRPGSFVLSFLSQMNVVNHFRIIAMCGDYYIGGRRFSSLSDLIGYYSHVSCLLKGEKLLYPVAPPEPVEDRRRVRAILPYTKVPDTDEISFLKGDMFIVHNELEDGWMWVTNLRTDEQGLIVEDLVEEVGREEDPHEGKIWFHGKISKQEAYNLLMTVGQVCSFLVRPSDNTPGDYSLYFRTNENIQRFKICPTPNNQFMMGGRYYNSIGDIIDHYRKEQIVEGYYLKEPVPMQDQEQVLNDTVDGKEIYNTIRRKTKDAFYKNIVKKGYLLKKGKGKRWKNLYFILEGSDAQLIYFESEKRATKPKGLIDLSVCSVYVVHDSLFGRPNCFQIVVQHFSEEHYIFYFAGETPEQAEDWMKGLQAFCNLRKSSPGTSNKRLRQVSSLVLHIEEAHKLPVKHFTNPYCNIYLNSVQVAKTHAREGQNPVWSEEFVFDDLPPDINRFEITLSNKTKKSKDPDILFMRCQLSRLQKGHATDEWFLLSSHIPLKGIEPGSLRVRARYSMEKIMPEEEYSEFKELILQKELHVVYALSHVCGQDRTLLASILLRIFLHEKLESLLLCTLNDREISMEDEATTLFRATTLASTLMEQYMKATATQFVHHALKDSILKIMESKQSCELSPSKLEKNEDVNTNLTHLLNILSELVEKIFMASEILPPTLRYIYGCLQKSVQHKWPTNTTMRTRVVSGFVFLRLICPAILNPRMFNIISDSPSPIAARTLILVAKSVQNLANLVEFGAKEPYMEGVNPFIKSNKHRMIMFLDELGNVPELPDTTEHSRTDLSRDLAALHEICVAHSDELRTLSNERGAQQHVLKKLLAITELLQQKQNQYTKTNDVR
partner: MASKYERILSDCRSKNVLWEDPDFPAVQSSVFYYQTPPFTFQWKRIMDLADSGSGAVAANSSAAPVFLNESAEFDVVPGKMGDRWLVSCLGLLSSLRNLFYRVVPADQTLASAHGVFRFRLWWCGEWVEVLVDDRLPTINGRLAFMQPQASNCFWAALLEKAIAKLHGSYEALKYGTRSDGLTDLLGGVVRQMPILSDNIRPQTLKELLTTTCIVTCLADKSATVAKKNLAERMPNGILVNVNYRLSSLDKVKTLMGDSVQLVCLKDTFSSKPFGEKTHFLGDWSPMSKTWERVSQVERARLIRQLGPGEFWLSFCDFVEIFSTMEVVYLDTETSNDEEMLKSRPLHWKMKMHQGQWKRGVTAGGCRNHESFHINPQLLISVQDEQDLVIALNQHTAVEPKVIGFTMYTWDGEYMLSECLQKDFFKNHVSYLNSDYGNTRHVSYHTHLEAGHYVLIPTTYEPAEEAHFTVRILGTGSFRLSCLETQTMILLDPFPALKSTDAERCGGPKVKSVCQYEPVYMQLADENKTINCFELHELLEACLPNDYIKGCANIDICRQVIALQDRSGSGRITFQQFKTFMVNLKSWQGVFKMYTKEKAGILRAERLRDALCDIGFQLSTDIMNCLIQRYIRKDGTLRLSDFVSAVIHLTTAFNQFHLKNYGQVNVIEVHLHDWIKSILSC

Variants of: B1
Conditions: with canc_drome CalpC

Variant | effect of a mutation on the interaction
W317K | disrupting interaction
